According to patent US20240287489A1, “CHITINOLYTIC ENZYME-BASED PLANT PROTECTION AGENTS” (GLOBACHEM NV, priority 2021, published 2024):
Entries after “also recorded” stand apart in the source; their conditions may differ.

Assays:
Type in all cases: biochemical
[1] = Reducing end assay, specific chitinase activity of expression and purification fractions; details: chitin powder, 16 h at 30° C.
Procedure: Integrity and correctness of the constructs was confirmed by colony PCR and Sanger-sequencing. All constructs were transformed into E. coli BL21 and expressed recombinantly. Expression levels of the target enzymes were determined densitometrically after immunoblot detection for cytosolic and secreted expression. Enzymatic activity was determined for all samples using a reducing end assay. […] Furthermore, it was confirmed that these enzymes are efficiently released into the culture supernatant, rendering cell lysis unnecessary for future production cycles.
A two-step purification of the selected recombinant enzymes with PelB signal peptide form the culture supernatant was carried out with an initial ammonium sulfate precipitation step and a sequential IMAC purification of the solubilized protein precipitate. Elution fractions were pooled and an SDS-PAGE and immunoblot was prepared loading the same volume for each sample (FIG. 4). Expression levels of the five chitinases varied largely, and C1 was detected in much greater abundance relative to the others. […] The observed molecular weight of all enzymes in SDS-PAGE gel and immunoblot was not in accordance with the expected theoretical molecular weight taking into account that a 6×His tag was added C-terminally to the enzymes and in general, bands for all enzymes were detected at a higher molecular weight. For all samples, unspecific bands could detected at ˜25 kDa and ˜50 kDa after IMAC purification, most likely representing host cell protein-contaminations. The amount of protein in the culture media, ammonium sulfate concentrates and the final dialyzed elution fractions was determined using the BCA assay and the same fractions were incubated with chitin powder for 16 h at 30° C. followed by the quantification of reducing sugars to measure specific chitinase activity (Table 4.2). Thereby it was confirmed that all target enzymes were successfully enriched during purification according to the specific activity.
For the determination of enzymatic activity of recombinant chitinases, a reducing end assay was carried out [Svein et al., Carbohydr Polym, 2004. 56(1): p. 35-39.]. Fractions containing chitinases were incubated with 5% (w/v) chitin powder extracted from shrimp shells (˜400.000 g/mol; Carl Roth) in MAT buffer for 2 h in an overhead shaker at ambient temperature (standard conditions). Samples were centrifuged at 13000×g for 2 min and 40 μl of the supernatant was mixed with 40 μl 0.5 M NaOH and 40 μL of a reagent containing 1.5 mg/ml 3-Methyl-2-benzothiazolinonhydrazon and 0.75 mg/ml Dithiothreitol. Samples were incubated at 80° C. for 15 min and then thoroughly mixed with 80 μl of 0.5% (w/v) FeNH4(SO4)2)×12H2O, 0.5% (w/v) sulfamic acid and 0.25 M HCl. After cooling down to room temperature, 100 μl of the samples were measured at 620 nm. A calibration curve of N-acetyl-glucosamine was constructed freshly for each measuring cycle. One unit [U] was defined as the amount of enzyme required to release 1 μmol of reducing sugars per hour.

[2] = Substrate specificity, reducing end assay; details: in % activity of chitin powder; 16 h at optimum conditions, 50 mg/ml substrate
Procedure: Different chitinous substrates were tested to assess the substrate affinity of the novel chitinases relative to untreated chitin powder. […] As expected, the conversion of colloidal chitin is more efficient compared to chitin powder as it provides an overall smaller particle size and thereby larger surface area. Chitosan powder (degree of acetylation: 15%) was also degraded efficiently and high chitosanase activity was observed especially for C1, C3, C4 and C5. Merely basal activity was detected when cellulose was utilized as a substrate for all enzymes.
Enzyme samples were incubated at different temperature (10-60° C., 10° C. increment) and pH (4-11, increment 1) using different buffer systems (Acetate, Tris-HCl, MES, total molar concentration 100 mM), as well as NaCl content (0, 1. 2.5, 5, 10 and 20% w/v) to determine optimum reaction conditions. All experiments were carried out at 1.0 ml scale using 2 μM of the respective enzymes and a 5% (wv) suspension of chitin powder extracted from shrimp shells (˜400.000 g/mol; Carl, Roth) in 100 mM MAT buffer. For the determination of the substrate specificity, chitin powder (5% w/v), glycol chitin (10% v/v), colloidal chitin (5% w/v), chitosan [DA 15-25%, medium molecular weight, Sigma-Aldrich] (5% w/v) and microcrystalline cellulose powder (Sigma Aldrich) (5% w/v) were investigated, respectively. The effect of several potential co-factors on activity was elucidated at a concentration of 1 mM. Additionally, the effect of detergents [SDS 0.5% (w/v), Tween-20 and Triton X-100 both at 0.5% (v/v)] and chemicals (Imidazole 100 mM, EDTA 1 mM) on enzymatic activity was assessed. Samples were incubated in a thermomixer for 16 h at 900 rpm. After incubation, samples were analyzed using the enzyme assay. Thermostability was assessed after incubation of recombinant chitinases at 60° C. for different durations followed by the quantification of residual enzyme activity under standard assay conditions.

[3] = TLC analysis of cleavage patterns with chitin standard molecules; details: for hydrolysis products from chitin pentamers / hydrolysis products from chitin trimers: 4 mg/ml, 16 h, TLC; for cleavage mechanism (exo-/endo-chitinase activity): TLC of products from oligomeric or polymeric chitin substrates
Procedure: monomeric oligomers. Chitosan was degraded to a crude mixture of multiple oligomers ranging from dimers to pentamers and even larger undefined yet water-soluble fragments that migrated slightly from the starting point. Further analysis of the cleavage patterns was carried out using chitin standard molecules of DP2-DP6 and incubating them at 4 mg/ml concentration with the individual enzymes (FIG. 9).
Dimeric chitin molecules were not converted by any of the enzymes. […] All chitinases degraded chitin tetramers to dimers as a single product. […] Chitin hexamers were degraded to dimers and trimers. Although all chitinases are different in their structure and present different glycosyl hydrolase domains hydrolysis products in general were similar.
C2, 4 and 5 yielded similar product patterns when incubated with insoluble substrates. […] The presented data underline that the novel chitinases are all suited for the degradation of powdery chitin without any further harsh chemical pre-treatment.
Hydrolysis products were analyzed using 10×10 cm TLC Silica gel 60 F254 plates (Merck, Darmstadt, Germany) and a mixture of butanol:methanol:25% ammonia:H2O (5:4:2:1) as mobile phase. A total sample volume of 0.5 μl was applied in 0.25 μl spots. Chitin standard sugars (Megazyme, Chicago, USA) (5 mg/ml) were applied to the plate (0.5 μL in 0.25 μL spots) as size standard for the determination of the DP. After separation, the plate was air-dried and the developing solution (200 ml Acetone, 30 ml phosphoric acid (85%), 4 ml aniline, 4 g diphenylamine) was sprayed on the plate followed by spot visualization at 300° C. using a heat gun.

[4] = Dialysed elution fraction after IMAC

Row | Molecule | Specific activity ([1]; Culture supernatant fraction) [U/mg] | Specific activity [1, 4] [U/mg] | Relative activity, Cellulose [2] [%] | Relative activity, Chitin [2] [%] | Relative activity, Chitosan [2] [%] | hydrolysis products from chitin pentamers [3] | hydrolysis products from chitin trimers [3] | cleavage mechanism (exo-/endo-chitinase activity) [3] | cleavage mechanism (exo-/endo-chitinase activity) ([3]; listed as C5)
1 | Chitinase 2: chitinolytic enzyme from P. orarium, SEQ ID NO: 2, recombinant with PelB signal peptide and 6×His tag (protein, listed as Photobacterium orarium, PelB signal peptide; 6xHis tag; Chitinase 2) MATANYNPDGVYSAGEQVIYQGATYQALRSTENEAPDTYLGDAWQQVNAQNVTSSTTPTYPAYQSSAVYVGGDHVSYNSQIYKAKWWTQGEAPDATPGTGVWEWVSADNNPDPGPGPDPDPTPEPTPANGIIGQNPDGSYIMSKTYLDAREAELTSSPEFAAVLASISTRDNAVVEAVVPGLSTNPDNVKRVEALISEQKWDALFPERNVVYTYSNFLKAVAKFKGFCATYTDERAAQSDAICAKSLAVMFAHFTQETGAHNPHSPYEEWRQGLFFVREAGCSEEASSCGYNSECAASNWQTEQWPCGTNPDGSYVKYFGRGAKQLSYHYNYGPFSDFIFNDVNVLLQDPDRVADSWLNLASAVFFFVYPQPPKPSMLHVIDGTWQPTAADIAEKRVPGFGVTTMIINGGIECTLDTEKPQSVNRIKYYRGHAAALGVAIPADEQLGCAGMKAFKKTGDSTFGLYWENDWSYYPDNPGGSSFACRIESGYQTAHTTLKKGDYAKCIQKYYGVTIE | 0.04 | 5.36 | 10.0 ± 1.1 | 100 | 71.4 ± 6.7 | trimers and dimers | no activity | endo-chitinase activity | 
2 | Chitinase 5: chitinolytic enzyme from P. orarium, SEQ ID NO: 5, recombinant with PelB signal peptide and 6×His tag (protein, listed as Photobacterium orarium, PelB signal peptide; 6xHis tag; Chitinase 5) MAMGWSQININGVQKWEEAYSLNVDAANEIITIGAADTAGALYASQSLLQLVDGNKVPEVQITDAPRFAYRGFSVDAVRNFRTKDAIIQLLDQMAAFKLNKLHLRLADDEGWRIEIAGLPELTDVGATRCHDPEEKACILPFLGAGPDGSPESNGYYTATDYQDILSHAAALNIEVVPEIDIPGHAHAAIKAMEARYDHYAAQGNMAEANKYLLTDFNDTTQYLSVQMFTDNAINVCMESSYNFVDAVVSGLVSLHQGVQPLKTFHFGGDEIAGAWINSPACQDFIANNTDGVHSVSDLSRYFVERISVITANYGLDMAGWEDGLMHDGQVYPRSQMANNQLWGNAWQNIWEWGVADRAYNLANNDYKVVYNHATHLYFDHPYEPDPNERGYYWAPRFTDTRKTFGFMPDDVFANADFTRAGAPITKAEVVASAGVKKLLKPENVLGLQGSLWAEAVRTEDQFEGMIFPRVLGLAERAWHTATWEANDNAGIALDETGRNADYNHFANLLGQKVLPKLEQAGIAFNLPVPGGVIENGVLQANSTFPGLTIEYSTDQGTSWQSYDHLNPPAVAAGVQLRTVSGQRTSRVTTVNIE | 0.03 | 6.67 | 11.2 ± 1.1 | 100 | 117.8 ± 1.7 | trimers and dimers | no activity |  | no exochitinase activity; also recorded: endo-chitinase activity
3 | Chitinase 4: chitinolytic enzyme from P. orarium, SEQ ID NO: 4, recombinant with PelB signal peptide and 6×His tag (protein, listed as Photobacterium orarium, PelB signal peptide; 6xHis tag; Chitinase 4) MAQAAANCRPDGLYQTPGVTVPYCTVYDQDGREKMGVDHPRRVIGYFTSWRSGNDPQSSYLVNDIPWDSLTHINYAFVSIGSDGKVNIGNVNNPDNPAVGKEWPGVEIDPALGFKGHFGALATAKAQHGVKTLISIGGWAETGGHFDDNGNRVADGGFYTMTTNADGSINHQGIQTFADSAVAMMRQYKFDGLDIDYEYPTSMQGAGNPDDFAYSDAMRPHLMKSYHELMKVLREKLDQASAQDGHHYMLTIAAPSSGYLLRGMETMSVTKYLDYVNIMSYDLHGAWNDYVGHNASLFDSGLDAELEAGNVYGTAQYKKTGYLNTDWAYHYFRGSMPAGRINIGVPYYTRGWQGVTGGTNGLWGKAALPNQSDCPTGTGAGTSNCGYGAIGIDNMWHDKDANGNEMGAGSNPMWHAMNLANGVYGSYTAAYGLDPVNDPQDALTGTYTRHYDSVSVAPWLWNADKKVFLSTEDKESINTKADYVIEQGIGGIMFWELAGDYSCYNLDANGNRTTVDPTENACKTGNGEYHMGDTMTKAIHNKFATATPYGNTLAEGAIPTEAVNIDVSVTGFKVGDQNYPLNPTMTLTNKTGQTLPGGTEFQFDIPTSTPDNMSDQSGANLQVISSGHTRGDNIGGLDGNFHRVAFTLPSWKQLGNNESFELTLNYFLPISGPANYSVRVNNADYALAFEQPDLPIADLSNGGGDNGGGDGNNGDCVTTGVNTYPNWPQTDWAGNPSHAGTGDKIIYNGAVYQAKWWTNSVPGSDGSWDTVCTVQIE | 0.07 | 6.07 | 10.4 ± 0.9 | 100 | 141.3 ± 5.5 | trimers and dimers | dimers and monomers | endo-chitinase activity | 
